This passage reports percent binding (control threshold) results from patent US7084106.

This test addresses cell surface class I HLA-ABC molecules on human umbilical cord vascular endothelial cells (HUVECs) (human). Description: flow cytometry on HUVECs, isotype-matched mouse IgG2a control.

For “isotype-matched mouse IgG2a mAb (nonspecific mouse monoclonal antibody)”, the percent binding (control threshold) is less than 1%.
